The target of assay [1] is T1, LAG-3 on activated human CD4+ T cells (human, UniProt P18627 23-525).
T1 construct: whole, on cells; also called endogenous LAG-3
T1 sequence (looked up): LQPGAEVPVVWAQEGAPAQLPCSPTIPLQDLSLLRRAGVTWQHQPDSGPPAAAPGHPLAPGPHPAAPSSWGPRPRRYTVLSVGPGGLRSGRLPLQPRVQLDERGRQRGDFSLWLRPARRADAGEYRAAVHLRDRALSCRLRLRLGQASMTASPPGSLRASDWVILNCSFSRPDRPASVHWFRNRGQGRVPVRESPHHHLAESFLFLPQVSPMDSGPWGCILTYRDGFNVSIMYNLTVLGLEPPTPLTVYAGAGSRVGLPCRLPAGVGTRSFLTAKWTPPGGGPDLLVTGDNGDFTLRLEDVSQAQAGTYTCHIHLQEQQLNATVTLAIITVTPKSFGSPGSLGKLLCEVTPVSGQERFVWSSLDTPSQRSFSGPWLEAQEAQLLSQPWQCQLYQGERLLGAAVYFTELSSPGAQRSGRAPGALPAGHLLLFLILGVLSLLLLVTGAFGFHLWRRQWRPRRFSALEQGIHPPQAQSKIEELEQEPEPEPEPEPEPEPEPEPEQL
In words: flow cytometry on activated human CD4+ T cells, MFI curve. As to the method: CD4+ T cell isolation: This was performed according to the ‘Untouched CD4+ T cell isolation’ kit instructions (11346D, Invitrogen). PBMCs were left for 2 h before the cell suspension was pipetted into a 15-mL centrifugation tube. The cells were centrifuged at 200 g for 10 min, and the precipitate was resuspended with 500 μL of a separating medium, 100 μL of AB type serum and 100 μL of purified antibody. The mixture was incubated for 20 min at 4° C., and washed once with the separating medium. 500 μL of a Bead Buffer (Invitrogen) was added for an incubation of 15 min, and the beads were then removed by a magnetic field. The mixture was washed once with a T cell culture medium, and resuspended with 8 mL of a culture medium. The resulting mixture was then incubated at 37° C. in presence of 6% CO₂.
According to the ratio of magnetic beads to CD4⁺ T cells equivalent to 1:1, anti-CD3/CD28 magnetic beads (Gibco) were added to CD4⁺ T cells for stimulation for 3 days. The cell density was adjusted to 1×10⁶/mL. The cells were loaded into a first well, 150 μL/well, and into other wells, 100 μL/well. […] The samples were mixed well. […] The mixture was resuspended in 60 μL of PBS and analyzed by flow cytometry. The flow cytometry was performed on an Accuri C6 system (BD Biosciences), and a concentration-dependent curve was fitted with GraphPad according to the mean fluorescence intensity (MFI).
(In flow cytometry, cells or beads pass a laser one at a time.)

Assay [2] concerns the target T2, mouse LAG-3 overexpressed on CHO cells (mouse, UniProt Q61790 24-521).
T2 construct: whole, on cells; also called CHO-mLAG-3 cells; mouse LAG-3 on the cell surface
T2 sequence (looked up): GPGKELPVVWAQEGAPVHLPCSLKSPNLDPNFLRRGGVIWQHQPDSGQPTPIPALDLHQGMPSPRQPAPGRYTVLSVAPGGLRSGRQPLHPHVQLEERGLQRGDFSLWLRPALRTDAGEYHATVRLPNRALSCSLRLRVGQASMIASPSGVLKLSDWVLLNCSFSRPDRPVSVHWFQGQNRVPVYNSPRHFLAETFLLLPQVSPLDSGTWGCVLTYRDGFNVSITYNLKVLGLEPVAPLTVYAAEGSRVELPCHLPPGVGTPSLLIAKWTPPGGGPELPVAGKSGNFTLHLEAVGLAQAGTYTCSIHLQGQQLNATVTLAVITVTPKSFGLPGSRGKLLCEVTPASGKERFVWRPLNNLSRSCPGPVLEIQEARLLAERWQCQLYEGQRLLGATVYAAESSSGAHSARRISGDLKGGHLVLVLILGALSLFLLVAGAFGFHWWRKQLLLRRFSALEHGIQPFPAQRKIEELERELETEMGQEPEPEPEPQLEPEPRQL
In words: flow cytometry (MFI) on CHO cells overexpressing mouse LAG-3; value from the EC50 table on the sheet, which has no unit of its own (concentration axis in nM); the curve has no plateau. As to the method: (§1) The cells were incubated on ice for 30 min. The cells were then washed at least twice prior to addition of a secondary antibody (a PE-labeled goat anti-human IgG antibody, Southern Biotech, final concentration […]) diluted in 1:100, and incubated on ice (protected from light) for 30 minutes. The cells were washed at least twice and analyzed by flow cytometry. The flow cytometry assay was performed on an Accuri C6 system (BD Biosciences), and a concentration-dependent curve was fitted with GraphPad according to the mean fluorescence intensity (MFI).

In assay [3] the target is T2, mouse LAG-3 overexpressed on CHO cells. In words: flow cytometry on CHO-mLAG-3 cells, MFI curve. As to the method: as §1

For two molecules, EC50 results are on record in US20210371529A1 (Innovent, published 2021).

B1: ADI-31851 (antibody, human IgG4 S228P, kappa, F234A L235A, V domains shown)
VH: QLQLQESGPGLVKPSETLSLTCTVSGGSISSPDYYWGWIRQPPGKGLEWIGSIVYSGYTYYNPSLKSRVTISVDTSKNQFSLKLSSVTAADTAVYYCARVRTWDQSFDIWGQGTMVTVSS
VL: DIQMTQSPSSLSASVGDRVTITCQAGQDISNYLNWYQQKPGKAPKLLIYDASNLETGVPSRFSGSGSGTDFTFTISSLQPEDIATYYCQQVLELPPWTFGGGTKVEIKR
notes: IgG4 heavy chain constant region with kappa light chain; expressed in HEK293 cells
A word on the EC50: it is the midpoint of the concentration-response curve. Read a high EC50 as a need for much substance. As for B1, the EC50 is 0.013 nM in assay [1] and ~12100 nM in assay [2].

B2: ADI-31853 (antibody, human IgG4 S228P, kappa, F234A L235A, V domains shown)
VH: QLQLQESGPGLVKPSETLSLTCTVSGGSIYSESYYWGWIRQPPGKGLEWIGSIVYSGYTYYNPSLKSRVTISVDTSKNQFSLKLSSVTAADTAVYYCARVRTWDAAFDIWGQGTMVTVSS
VL: DIQMTQSPSSLSASVGDRVTITCQASQDISNYLNWYQQKPGKAPKLLIYDASNLETGVPSRFSGSGSGTDFTFTISSLQPEDIATYYCQQVLELPPWTFGGGTKVEIKR
notes: as for B1
For the molecule B2, the EC50 in assay [3] is 42.3 nM; in assay [1] it was 0.011 nM.
